Non-standard residues stand in square brackets, D forms with d. No end group written: not given here. pY = N[C@@H](Cc1ccc(OP(=O)(O)O)cc1)C(=O)O

B1: mNG-SHIP1 (FL, 1–1188 aa), full-length human Src homology 2 domain–containing inositol 5-phosphatase 1 (enzyme, UniProt Q92835-2 1-1188, looked up)
chain: MVPCWNHGNITRSKAEELLSRTGKDGSFLVRASESISRAYALCVLYRNCVYTYRILPNEDDKFTVQASEGVSMRFFTKLDQLIEFYKKENMGLVTHLQYPVPLEEEDTGDDPEEDTESVVSPPELPPRNIPLTASSCEAKEVPFSNENPRATETSRPSLSETLFQRLQSMDTSGLPEEHLKAIQDYLSTQLAQDSEFVKTGSSSLPHLKKLTTLLCKELYGEVIRTLPSLESLQRLFDQQLSPGLRPRPQVPGEANPINMVSKLSQLTSLLSSIEDKVKALLHEGPESPHRPSLIPPVTFEVKAESLGIPQKMQLKVDVESGKLIIKKSKDGSEDKFYSHKKILQLIKSQKFLNKLVILVETEKEKILRKEYVFADSKKREGFCQLLQQMKNKHSEQPEPDMITIFIGTWNMGNAPPPKKITSWFLSKGQGKTRDDSADYIPHDIYVIGTQEDPLSEKEWLEILKHSLQEITSVTFKTVAIHTLWNIRIVVLAKPEHENRISHICTDNVKTGIANTLGNKGAVGVSFMFNGTSLGFVNSHLTSGSEKKLRRNQNYMNILRFLALGDKKLSPFNITHRFTHLFWFGDLNYRVDLPTWEAETIIQKIKQQQYADLLSHDQLLTERREQKVFLHFEEEEITFAPTYRFERLTRDKYAYTKQKATGMKYNLPSWCDRVLWKSYPLVHVVCQSYGSTSDIMTSDHSPVFATFEAGVTSQFVSKNGPGTVDSQGQIEFLRCYATLKTKSQTKFYLEFHSSCLESFVKSQEGENEEGSEGELVVKFGETLPKLKPIISDPEYLLDQHILISIKSSDSDESYGEGCIALRLEATETQLPIYTPLTHHGELTGHFQGEIKLQTSQGKTREKLYDFVKTERDESSGPKTLKSLTSHDPMKQWEVTSRAPPCSGSSITEIINPNYMGVGPFGPPMPLHVKQTLSPDQQPTAWSYDQPPKDSPLGPCRGESPPTPPGQPPISPKKFLPSTANRGLPPRTQESRPSDLGKNAGDTLPQEDLPLTKPEMFENPLYGSLSSFPKPAPRKDQESPKMPRKEPPPCPEPGILSPSIVLTKAQEADRGEGPGKQVPAPRLRSFTCSSSAEGRAAGGDKSQGKPKTPVSSQAPVPAKRPIKPSRSEINQQTPPTPTPRPPLPVKSPAVLHLQHSKGRDYRDNTELPHHGKHRPEEGPPGPLGRTAMQ
B2: pY-ITIM, phosphotyrosine peptide from the immunoreceptor tyrosine inhibitory motif (ITIM) of the FcγRIIB receptor (peptide)
peptide: CKTEAENTIT[pY]SLIK
modifications: also: N-terminal Cys coupled to maleimide headgroup of MCC-PE lipid in membrane-conjugated experiments
notes: cysteine added to the N terminus for coupling to the maleimide lipid; the tyrosine is phosphorylated; Used in solution (100 μM) or conjugated to supported lipid bilayers with 2% MCC-PE; also called pY peptide; ITIM peptide; source: synthetic peptide (Elim Biopharmaceuticals)

For assay [1], the target named is B2. The experiment in a line: cell-based or functional assay.
For assay [2], the target named is B1. The experiment in a line: TIRF microscopy on supported lipid bilayers (bulk membrane recruitment); 5 nM mNG-SHIP1 construct in solution; pY-ITIM peptide covalently conjugated to maleimide lipid in the SLB (96% DOPC, 2% PI(3,4,5)P3, 2% MCC-PE); 23 °C. To be noted: both partners purified.

With B1, the “lipid phosphatase activity of 20 nM FL SHIP1 on SLB (PI(3,4,5)P3 dephosphorylation, Grp1-AF647 sensor, reaction half time) with 100 μM pY-ITIM in solution” value in assay [1] is ~5 fold. Regarding B2, the binding result in assay [2] is listed as “binds”.

The values are drawn from article PMC10448276, “Mechanisms controlling membrane recruitment and activation of the autoinhibited SHIP1 inositol 5-phosphatase” (The Journal of Biological Chemistry, 2023).
